A short description of the series: soluble on expression in E. coli; label from the status in PepcDB or PDB records.
For “MKRMLASLLGTAIALGSGLALAAEADLQALEQAARKEGQVNSVGMPDSWANWKDTWKDLESKYGLKHMDTDMSSAQELAKFKAEKDNASADIGDVGAAFGPIAVQQGVSQPYKPSTWEQIPAWAKDQDGHWALAYTGTIAFIVNKQLVKDVPHSWADLLQGKYKVTIGDVSAAAQAVNGVLAAAIANGGDEKNIKPGLEFFGKIAKQGRLSLTNPVIATLEKGEVEVGIVWDFNGLSYRQQIDPERFEVLIPSDGSVISGYTTIINKYAKHPNAAKLAREYIFSDAGQINLAKGNARPIRAESLTLPDDVKAQLLPNEQYAKAQPIKDAKAWEETSKRLPRQWQEAVIINMQ”, the “soluble on expression in E. coli” value is “not soluble”. With “MAHHHHHHMRVFVLVAVRSGDGGVATYPPSVWHLQQCVRARSASCCHATSGGYLWTRDALFRALRRTHVDGAPASVLENAGASQRAKAAAPPCFYFFSALLDVGNNEEDVDLVALLLMELCVAWPNAIAAHMEVCRVCRGELSPAHASSPLAATLGEGETDEPSWQLEHFTREEALLVLLSDEIEATAATQDDFLTRWGVHNAWDHHRALQGRSWWVSGGIVAVLPSEAATRLVEPFLMLELSRMENGCPQLSRHPASCRDSSQTLEEALTHAILERELSHSVRAYLRNEVEGRIESRRLHRMTTVVPPAMALFLRGAPSSVLHECLLYHTVDCPLFPVEGGGCDAAQSSTDRATGLVAPAASPTAFLRPVKSGLSSTDLLERQRLVARDETSRLTELFCEYDLLLSGDGYVRVPLAPVSRYVFTQLLCQSELPSALMLALMRRHSDVTRRAGDMGHRIDPAAVSSRLPPPTEEEVVLGIKVTWAVTRWTAALQRGAAAAPPVGLPMWNEEQSLRKDKLCGWIRERMRKAKREAAELYSLEDAADTRATGREEDGVASTVSALPVASGDTADPLRRCRGAALEQLERRLFAPFPSSYRGSSTEWLGQALRDVAREQRHAASNMAQRDDVRASYAGPAPAARRAASPNVLDNSSSASDSDGTSDDGSEGAGGVGTPTRQETESLLAQLTELEVVLQNELASRTAIPLACGGDSRTTDSRLGVGDAVTGDQEMDVTSWLTAADMQQVTRNELFLHHVQLLESEMEQDQ” the entry was “not soluble”; with “MGSDKIHHHHHHMVNIEIDEGSGFCFGVTTAIRKAEEELAKGNTLYCLGDIVHNGQECERLKKMGLITINHEEFAQLHDAKVLLRAHGEPPETYAIARTNNIEIIDATCPVVLRLQKRIKQEYDNVPASQDTQIVIYGKNGHAEVLGLVGQTHGKAIVIETPAEAAHLDFTKDIRLYSQTTKSLEEFWQIIEYIKEHISPDATFEYYDTICRQVANRMPNIRKFAAAHDLIFFVCGRKSSNGKILYQECKKINPNSYLIDQPEEIDRNLLEDVRSIGICGATSTPKWLMEECKKAILNEK”, “not soluble”. To “MSADGAEADGSTQVTVEEPVQQPSVVDRVASMPLISSTCDMVSAAYASTKESYPHVKTVCDAAEKGVRTLTAAAVSGAQPILSKLEPQIASASEYAHRGLDKLEENLPILQQPTEKVLADTKELVSSKVSGAQEMVSSAKDTVATQLSEAVDATRGAVQSGVDKTKSVVTGGVQSVMGSRLGQMVLSGVDTVLGKSEEWADNHLPLTDAELARIATSLDGFDVASVQQQRQEQSYFVRLGSLSERLRQHAYEHSLGKLRATKQRAQEALLQLSQVLSLMETVKQGVDQKLVEGQEKLHQMWLSWNQKQLQGPEKEPPKPEQVESRALTMFRDIAQQLQATCTSLGSSIQGLPTNVKDQVQQARRQVEDLQATFSSIHSFQDLSSSILAQSRERVASAREALDHMVEYVAQNTPVTWLVGPFAPGITEKAPEEKK” belongs “soluble”.

As to “MPALSHGLSRFRGEAKPPGPSPRRSRESMAMDSKASMFTHGARPARIALFSGNYNYTLDGANKSLNRLVDHVQRTTGAQVRIYSPTSPTPAFAPVGELVSVPSVTIPFRRDYRLALGLPAAVRRDVEAFAPDLIHLSAPDLLGAAALKLGRRLKTPVVASLHTLFDSYLDYYGLGGLRALARRRLWQFYGACDFVMTPTPAIGEELRAQNLGVQVRTWARGVDADLFNPARRSADWRAAQGFDPDRPVIVFLGRLVMEKGLAAFADTIDRLAASGPSPQVLIIGDGPARAWFQERLPMATFAGFLTGEALATALASADIFLNPSTTETFGNVNLEAMASGLAIVCADAPNTRALLRDGRDAILCAPSDPASYAQALLSLCQDQNRLRRMGAKALDRSAAYRWTEILDEVVDIYAEALDARASAPSRAEVSPHELRARTGRRAGLIDAQAAALSTPLEHHHHHH”, the “soluble on expression in E. coli” value is listed as “soluble”. Consider “MEGLFNAIKDTVTAAINNDGAKLGTSIVSIVENGVGLLGKLFGF”, for which the “soluble on expression in E. coli” value was “soluble”.
